These results are taken from patent US7612163B1, “Prokineticin 2β peptide and its use” (Janssen Pharmaceutica N.V., priority 2004, dated 2009).

Assay [1] concerns the target T1, human prokineticin receptor 1 (PKR1) (human, UniProt Q8TCW9 1-393). The assay can be described thus: cell-based or functional assay.
Assay [2] addresses T2, human prokineticin receptor 2 (PKR2) (human, UniProt Q8NFJ6 1-384). The assay can be described thus: cell-based or functional assay.
Assay [3] has as its target T1, human prokineticin receptor 1 (PKR1). Description: cell-based or functional assay. The source holds these as a separate data set.
The target in assay [4] is T2, human prokineticin receptor 2 (PKR2). The assay can be described thus: cell-based or functional assay. This is another data set of the same source.
Assay [5] has as its target T1, human prokineticin receptor 1 (PKR1). The assay can be described thus: radioligand competition against 100 pM 125I-PK2-f on COS-7 cells expressing PKR1. Here is the method: (§1) Radio-Ligand Binding Assays. PKR1 and PKR2 in the expression vector pCIneo (Promega) were transfected into COS-7 cells using LipofectAmine (Invitrogen). Two days after transfection, cells were detached from the culture dishes by 10 mM EDTA in PBS, washed with Dulbecco's Modified Eagle's Medium (DMEM) and seeded in 96-well opaque polylysine-coated plates (BD Biosciences, San Jose, Calif.) at a density of 50,000 cells per well. […] The binding assays were performed in DMEM plus 50 mM HEPES, pH 7.2 and 1% bovine serum albumin in a final volume of 100 µl. The binding assays were carried out at room temperature for 1 hour. After the plates were washed three times with ice cold PBS, Microscint-40 (Packard, Meriden, Conn.) was added and the plates were counted on a Topcount (Packard).
(§2) Different concentrations of PK1, PK2 or PK2β were added to the assays as the competitors. All assays were performed in triplicates. The results are mean values (±S.E.M) of triplicates. Figure 4B:
(§3) Prokineticins bind PKR1 and PKR2 with different affinities. With the purified PK2β available, it was investigated whether PK2β binds PKR1 or PKR2 in comparison with PK1 and PK2. […] Membranes from COS-7 cells transiently expressing PKR1 and PKR2 were used in competition binding assays. The results (FIG. 4A) indicate that PK1, PK2, and PK2β all bind PKR1 with high affinities, with the rank order of potency PK2>PK2β≅PK1.
A general note: In a radioligand displacement assay an active substance lowers the binding of a labelled ligand.

Assay [6] concerns the target T2, human prokineticin receptor 2 (PKR2). The assay can be described thus: radioligand competition against 100 pM 125I-PK2-f on COS-7 cells expressing PKR2. The method, then: as §1, §2, §3
A further assay has as its target PKR1 (Homo sapiens, UniProt Q8TCW9). The assay can be described thus: Radioligand competition binding assay (125I-PK2-f), PKR1 expressing COS-7 cells. On the set-up: The full-length cDNA coding regions for both PKR1 and PKR2 were PCR-amplified from human fetal brain cDNA; expressed in transfected cells; host or cells: COS-7 (transient, pCIneo). Particulars: FIG. 4A. Here is the method: (§4) FIGS. 4A and 4B graphically illustrate that PKs bind the PKR1 and PKR2 with different affinities. COS-7 cells transiently expressing PKR1 or PKR2 were seeded to 96-well plates. ^125I-labeled PK2-f was added to each well at a final concentration of 100 pM. Different concentrations of PK1, PK2 or PK2β were added to the assays as the competitors. All assays were performed in triplicates. The results are mean values (±S.E.M) of triplicates. FIG. 4A provides the results of the binding assay using PKR1 expressing cells.
(§5) Expression, purification, and iodination of C-terminal FLAG-tagged PK2. C-terminal FLAG-tagged PK2 (PK2-f) was constructed as described (Soga et al., 2002). Two primers P9: ATCGAGAATTCGCCACCATGAGGAGCCTGTGCTGCGCCC (SEQ.ID.NO.:11) and P10: GGATCCCTACTTATCGTCGTCATCCTTATAATCCTTTTGGGCTAAACA (SEQ.ID.NO.:12) were used to amplify human whole brain cDNA (Clontech). The PCR-amplified PK2-f was cloned into a mammalian expression vector pCMV-sport1 (Invitrogen). The resulting clones were sequenced to confirm the identities and transfected into COS-7 cells using LipofectAmine (Invitrogen). Three days after transfection, the cell culture supernatant was collected and run through an ANTI-FLAG M2 agarose (Sigma) affinity column. The column was washed with PBS and eluted with […] Glycine HCl, pH 3.0. The eluted protein fraction was immediately neutralized with 1 M Tris-HCl, pH 8.0 and then further purified by reverse-phase HPLC using a C4 column (Vydac). The purified recombinant PK2-f protein was iodinated using Iodogen reagent (Pierce, Rockford, Ill.) and ^125I-NaI (PerkinElmer, Boston, Mass.) as described by Pierce. The iodinated PK2-f was purified by a G-50 (Amersham Pharmacia Biotech) gel filtration column.
(§6) Radio-Ligand Binding Assays. PKR1 and PKR2 in the expression vector pCIneo (Promega) were transfected into COS-7 cells using LipofectAmine (Invitrogen). […] After the plates were washed three times with ice cold PBS, Microscint-40 (Packard, Meriden, Conn.) was added and the plates were counted on a Topcount (Packard).

Assay [7] has as its target T3, PKR2 (Homo sapiens, UniProt Q8NFJ6). The assay can be described thus: Radioligand competition binding assay (125I-PK2-f), PKR2 expressing COS-7 cells. Further details: The full-length cDNA coding regions for both PKR1 and PKR2 were PCR-amplified from human fetal brain cDNA; expressed in transfected cells; host or cells: COS-7 (transient, pCIneo). Particulars: FIG. 4B. The method, then: as §4, §5, §6

Assay [8] addresses T3, PKR2. Description: cAMP accumulation (cAMP [125I] FlashPlate) in HEK 293 cells co-expressing PKR2/Gs. Format: cell-based. On the set-up: The full-length cDNA coding regions for both PKR1 and PKR2 were PCR-amplified from human fetal brain cDNA; expressed in transfected cells; host or cells: HEK293 (transient, pCIneo, co-transfected with Gs plasmid). Particulars: FIG. 8C. Here is the method:
FIGS. 8B and 8C illustrate results from HEK 293 cells co-expressing PKR1/Gs (FIG. 8B) or PKR2/Gs (FIG. 8C) stimulated with different PKs at various concentrations (the accumulated cAMP was measured by a cAMP [^125I] FlashPlate Assay kit; the results are mean values (±S.E.M) of triplicate experiments (legend: ▪, PK1; ▴, PK2; ▾, PK2β)).
In a different experiment, PKR1 and PKR2 in the expression vector pCIneo (Promega) were co-transfected with the Gs expression plasmid into HEK293 cells using LipofectAmine (Invitrogen). Two days after transfection, cells were detached with 10 mM EDTA in PBS, resuspended in Dulbecco's Modified Eagle's Medium/F12 (DMEM/F12) media, and then plated on 96-well plates at a density of 50,000 cells per well. Two hours after the seeding, cells culture medium was replaced with DMEM/F12 containing 2 mM isobutylmethylxanthine (Sigma) and incubated for 30 min. Different concentrations of PK1, PK2 or PK2β were added to cells and incubated for an additional 30 min in a final volume of 200 μl/well. The reaction was stopped and cAMP was extracted by adding 20 μl of 0.5 N HCl to each well. Cell culture media were tested for cAMP concentrations by the cAMP [^125I] FlashPlate Assay kit (PerkinElmer) as described by the manufacturer.
For orientation: cAMP levels reflect the balance of adenylyl cyclase and phosphodiesterase activity.

Assay [9] concerns the target T1, human prokineticin receptor 1 (PKR1). Description: radioligand binding on PKR1 expressing cells.
Assay [10] concerns the target T2, human prokineticin receptor 2 (PKR2). The assay can be described thus: radioligand binding on PKR2 expressing cells.

Ends that are not written are not given here.

T1 sequence (Q8TCW9 whole entry): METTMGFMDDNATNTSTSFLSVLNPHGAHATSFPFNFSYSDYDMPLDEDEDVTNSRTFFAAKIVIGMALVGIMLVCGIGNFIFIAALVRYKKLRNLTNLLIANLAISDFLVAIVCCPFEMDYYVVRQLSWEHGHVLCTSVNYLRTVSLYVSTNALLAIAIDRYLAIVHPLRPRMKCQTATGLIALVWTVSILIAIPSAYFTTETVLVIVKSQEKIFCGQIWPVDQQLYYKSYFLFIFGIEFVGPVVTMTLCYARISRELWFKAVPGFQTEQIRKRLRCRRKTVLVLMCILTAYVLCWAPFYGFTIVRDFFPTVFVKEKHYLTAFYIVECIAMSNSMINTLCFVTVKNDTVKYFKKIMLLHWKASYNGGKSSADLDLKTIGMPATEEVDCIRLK
T2 sequence (Q8NFJ6 whole entry): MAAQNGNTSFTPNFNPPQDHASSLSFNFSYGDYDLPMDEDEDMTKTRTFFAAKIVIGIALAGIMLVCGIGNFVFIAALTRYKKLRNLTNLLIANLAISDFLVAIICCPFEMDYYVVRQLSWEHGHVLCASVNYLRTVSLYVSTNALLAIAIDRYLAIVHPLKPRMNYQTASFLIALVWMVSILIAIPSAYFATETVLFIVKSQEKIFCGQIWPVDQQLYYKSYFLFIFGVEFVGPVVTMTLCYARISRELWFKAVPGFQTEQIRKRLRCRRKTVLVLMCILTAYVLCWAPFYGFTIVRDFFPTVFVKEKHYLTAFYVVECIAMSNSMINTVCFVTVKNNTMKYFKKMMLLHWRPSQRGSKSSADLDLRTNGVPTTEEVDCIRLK
T3 sequence (Q8NFJ6 whole entry): as above
Sequence of PKR1 (Q8TCW9 whole entry): as the sequence (Q8TCW9 whole entry) above

B1: human PK2β mature peptide (ligand)
chain: AVITGACDKDSQCGGGMCCAVSIWVKSIRICTPMGKLGDSCHPLTRKNNFGNGRQE
modifications: ends and bridges not checked; cysteine pairing not given here
notes: Proteolytically processed form of PK2L secreted by COS-7 cells; The FLAG tag was removed with enterokinase; also called processed product of PK2L
Consider B1, for which the “EC50 for Ca2+ mobilization in PKR expressing HEK 293 cells” value (from here on “EC50 for Ca2+ mobilization”) in assay [1] turned out to be 1.5 nM; in assay [2], 80 nM. Besides, the results for the “EC50 for stimulation of cAMP accumulation, HEK 293 cells” value (shortened to “EC50 for stimulation … HEK 293 cells”) in assay [3] and in assay [4] were 23.4 nM and more than 1000 nM, respectively. Moreover, the IC50 in assay [5] was determined as 34.6 nM.

B2: human prokineticin 1 (PK1) mature peptide (ligand, UniProt P58294 20-105, looked up)
chain: AVITGACERDVQCGAGTCCAISLWLRGLRMCTPLGREGEECHPGSHKVPFFRKRKHHTCPCLPNLLCSRFPDGRYRCSMDLKNINF
notes: mature; also called EG-VEGF
As to B2, the “EC50 for Ca2+ mobilization” value in assay [1] came to 1.1 nM; in assay [2], 7.7 nM. In addition, the “EC50 for stimulation of cAMP accumulation (β-galactosidase reporter), SK-N-MC cells” value in assay [3] was 8.34 nM; in assay [4], 20 nM. Further, the “EC50 for stimulation … HEK 293 cells” value in assay [3] was found to be 16.8 nM; in assay [4], 60 nM. For the same molecule, the 50% inhibitory concentration (IC50) was 27.6 nM in [5] and 52.2 nM in [6].

B3: prokineticin 1 (protein)
chain: AVITGACERDVQCGAGTCCAISLWLRGLRMCTPLGREGEECHPGSHKVPFFRKRKHHTCPCLPNLLCSRFPDGRYRCSMDLKNINF
notes: recombinant human PK1 mature peptide, also known as endocrine gland vascular endothelial growth factor
On to B3, for which the “Binding to PKR1, in words” value with PKR1 was “high affinities”. For the same molecule, the “Binding to PKR2, in words” value in the assay with PKR2 [7] is “high affinity”. Further, in the assay with PKR2 [8], the “cAMP accumulation in PKR2 expressing HEK293 cells, in words” value was “high-potency ligands”.

B4: 125I-labeled human PK1 (ligand, UniProt P58294 20-105, looked up)
chain: AVITGACERDVQCGAGTCCAISLWLRGLRMCTPLGREGEECHPGSHKVPFFRKRKHHTCPCLPNLLCSRFPDGRYRCSMDLKNINF
modifications: 125I at Tyr75
notes: mature; Told of only in the discussion, as an attempted radioligand
B4: the binding result in assay [9] and in assay [10] was “binds” throughout.

B5: human prokineticin 2 (PK2) (ligand)
chain: AVITGACDKDSQCGGGMCCAVSIWVKSIRICTPMGKLGDSCHPLTRKVPFFGRRMHHTCPCLPGLACLRTSFNRFICLAQK
notes: Made in COS-7 cells with an N-terminal FLAG tag that was removed with enterokinase, then HPLC purified; also called mammalian Bv8
Consider B5, for which the “EC50 for Ca2+ mobilization” value in [1] is 0.8 nM; in [2], 3.6 nM. The entries for the “EC50 for stimulation of cAMP accumulation (β-galactosidase reporter), SK-N-MC cells” value in assay [3] and in assay [4] were 1.27 nM and 12.1 nM, respectively. Also, the entries for the “EC50 for stimulation … HEK 293 cells” value in assay [3] and in assay [4] were 3.17 nM and 41 nM, respectively. For the same molecule, the IC50 in assay [5] worked out at 4.5 nM; in assay [6], 6.4 nM.

B6: prokineticin 2 (protein)
chain: AVITGACDKDSQCGGGMCCAVSIWVKSIRICTPMGKLGDSCHPLTRKVPFFGRRMHHTCPCLPGLACLRTSFNRFICLAQK
notes: recombinant human PK2 peptide expressed in COS-7 cells
As for B6, in the assay with PKR1, the “Binding to PKR1, in words” value is recorded as “high affinities”. Moreover, the “Binding to PKR2, in words” value with PKR2 [7] is on record as “high affinity”. In the assay with PKR2 [8], the “cAMP accumulation in PKR2 expressing HEK293 cells, in words” value is “high-potency ligands”.

B7: 125I-labeled C-terminal FLAG-tagged PK2 (ligand)
chain: AVITGACDKDSQCGGGMCCAVSIWVKSIRICTPMGKLGDSCHPLTRKVPFFGRRMHHTCPCLPGLACLRTSFNRFICLAQK
modifications: 125I on the Tyr in the FLAG-tag
notes: Expressed from human PK2 cDNA with its own signal peptide and secreted by COS-7 cells; also called PK2-f; not shown: C-terminal FLAG tag
Regarding B7, the binding result in assay [9] and in assay [10] was “binds” throughout.

One may read the IC50 as the concentration that gives 50% inhibition. Higher therefore signals a need for much substance.
